Experimental data: paper PMC3433786 (The EMBO Journal, 2012)
Where a chain is given by its changes, count along the chain named. Names and notes keep the numbering of the source.

B1: mouse stomatin domain (amino acids 86–213), stomatin^86–213 (domain or fragment, UniProt P54116 86-213, looked up)
chain: PSTDSLIKVDMRTISFDIPPQEVLTKDSVTISVDGVVYYRVQNATLAVANITNADSATRLLAQTTLRNALGTKNLSQILSDREEIAHHMQSTLDDATDDWGIKVERVEIKDVKLPVQLQRAMAAEAEA
B2: stomatin^86–213 L109D,L145D (domain or fragment, mouse, UniProt P54116 86-213, looked up)
chain: B1 chain with L24D, L60D
B3: stomatin^86–213 T182W (domain or fragment, mouse, UniProt P54116 86-213, looked up)
chain: B1 chain with T97W
B4: stomatin^86–213 R97D, L109D, L145D (domain or fragment, mouse, UniProt P54116 86-213, looked up)
chain: B1 chain with R12D, L24D, L60D
B5: stomatin^86–213 LI91,92AA (domain or fragment, mouse, UniProt P54116 86-213, looked up)
chain: B1 chain with L6A, I7A

Key:
AUC = biological target: the molecule itself; test: AUC
SEC-MALS = biological target: the molecule itself; test: SEC-MALS
crystal structure = biological target: the molecule itself; test: crystal structure

| Protein | binding result (SEC-MALS) | other results |
| --- | --- | --- |
| B1 |  | Kd (AUC): 37 µM |
| B2 | binds |  |
| B3 | binds |  |
| B4 | binds |  |
| B5 |  | binding result (crystal structure): binds |
